{"source": "IntAct's records for PubMed 20059542", "parents": {"B1": {"name": "26S proteasome non-ATPase regulatory subunit 4 (Homo sapiens), P55036 (parent)", "chain": "MVLESTMVCVDNSEYMRNGDFLPTRLQAQQDAVNIVCHSKTRSNPENNVGLITLANDCEVLTTLTPDTGRILSKLHTVQPKGKITFCTGIRVAHLALKHRQGKNHKMRIIAFVGSPVEDNEKDLVKLAKRLKKEKVNVDIINFGEEEVNTEKLTAFVNTLNGKDGTGSHLVTVPPGPSLADALISSPILAGEGGAMLGLGASDFEFGVDPSADPELALALRVSMEEQRQRQEEEARRAAAASAAEAGIATTGTEDSDDALLKMTISQQEFGRTGLPDLSSMTEEEQIAYAMQMSLQGAEFGQAESADIDASSAMDTSEPAKEEDDYDVMQDPEFLQSVLENLPGVDPNNEAIRNAMGSLASQATKDGKKDKKEEDKK"}, "B2": {"name": "DNA damage-inducible protein 1 (Saccharomyces cerevisiae), P40087 (parent)", "chain": "MDLTISNELTGEIYGPIEVSEDMALTDLIALLQADCGFDKTKHDLYYNMDILDSNRTQSLKELGLKTDDLLLIRGKISNSIQTDAATLSDEAFIEQFRQELLNNQMLRSQLILQIPGLNDLVNDPLLFRERLGPLILQRRYGGYNTAMNPFGIPQDEYTRLMANPDDPDNKKRIAELLDQQAIDEQLRNAIEYTPEMFTQVPMLYINIEINNYPVKAFVDTGAQTTIMSTRLAKKTGLSRMIDKRFIGEARGVGTGKIIGRIHQAQVKIETQYIPCSFTVLDTDIDVLIGLDMLKRHLACVDLKENVLRIAEVETSFLSEAEIPKSFQEGLPAPTSVTTSSDKPLTPTKTSSTLPPQPGAVPALAPRTGMGPTPTGRSTAGATTATGRTFPEQTIKQLMDLGFPRDAVVKALKQTNGNAEFAASLLFQ"}, "B3": {"name": "UV excision repair protein RAD23 homolog B (Homo sapiens), P54727 (parent)", "chain": "MQVTLKTLQQQTFKIDIDPEETVKALKEKIESEKGKDAFPVAGQKLIYAGKILNDDTALKEYKIDEKNFVVVMVTKPKAVSTPAPATTQQSAPASTTAVTSSTTTTVAQAPTPVPALAPTSTPASITPASATASSEPAPASAAKQEKPAEKPAETPVATSPTATDSTSGDSSRSNLFEDATSALVTGQSYENMVTEIMSMGYEREQVIAALRASFNNPDRAVEYLLMGIPGDRESQAVVDPPQAASTGAPQSSAVAAAAATTTATTTTTSSGGHPLEFLRNQPQFQQMRQIIQQNPSLLPALLQQIGRENPQLLQQISQHQEHFIQMLNEPVQEAGGQGGGGGGGSGGIAEAGSGHMNYIQVTPQEKEAIERLKALGFPEGLVIQAYFACEKNENLAANFLLQQNFDED"}, "B4": {"name": "26S proteasome non-ATPase regulatory subunit 4 homolog (Arabidopsis thaliana (Mouse-ear cress)), P55034 (parent)", "chain": "MVLEATMICIDNSEWMRNGDYSPSRLQAQTEAVNLLCGAKTQSNPENTVGILTMAGKGVRVLTTPTSDLGKILACMHGLDVGGEINLTAAIQIAQLALKHRQNKNQRQRIIVFAGSPIKYEKKALEIVGKRLKKNSVSLDIVNFGEDDDEEKPQKLEALLTAVNNNDGSHIVHVPSGANALSDVLLSTPVFTGDEGASGYVSAAAAAAAAGGDFDFGVDPNIDPELALALRVSMEEERARQEAAAKKAADEAGQKDKDGDTASASQETVARTTDKNAEPMDEDSALLDQAIAMSVGDVNMSEAADEDQDLALALQMSMSGEESSEATGAGNNLLGNQAFISSVLSSLPGVDPNDPAVKELLASLPDESKRTEEEESSSKKGEDEKK"}, "B5": {"name": "UV excision repair protein RAD23 (Saccharomyces cerevisiae), P32628 (parent)", "chain": "MVSLTFKNFKKEKVPLDLEPSNTILETKTKLAQSISCEESQIKLIYSGKVLQDSKTVSECGLKDGDQVVFMVSQKKSTKTKVTEPPIAPESATTPGRENSTEASPSTDASAAPAATAPEGSQPQEEQTATTERTESASTPGFVVGTERNETIERIMEMGYQREEVERALRAAFNNPDRAVEYLLMGIPENLRQPEPQQQTAAAAEQPSTAATTAEQPAEDDLFAQAAQGGNASSGALGTTGGATDAAQGGPPGSIGLTVEDLLSLRQVVSGNPEALAPLLENISARYPQLREHIMANPEVFVSMLLEAVGDNMQDVMEGADDMVEGEDIEVTGEAAAAGLGQGEGEGSFQVDYTPEDDQAISRLCELGFERDLVIQVYFACDKNEEAAANILFSDHAD"}, "B6": {"name": "Ubiquitin domain-containing protein DSK2b (Arabidopsis thaliana (Mouse-ear cress)), Q9SII8 (parent)", "chain": "MGGEGDSSQPQSGEGEAVAVNIRCSNGTKFSVKTSLDSTVESFKELVAQSSDVPANQQRLIYKGRILKDDQTLLSYGLQADHTIHMVRGSAPSSAPPPAPAASQTTAPSVTRGVGSDNSSNLGGASPGESLFPGLGFNPLGGGNAMSGLFGAGLPDLVQTQQQLAQNPNMIRDMMNTPAIQNLMNNPEFMRSMIMNNPQMRELVDRNPELGHVLNDPSILRQTLEAARNPELMREMMRNTDRAMSNIESMPEGFNMLRRMYENVQEPLMNATTMSGNAGNNTGSNPFAALLGNQGVTTQGSDASNNSSTPNAGTGTIPNANPLPNPWGATGGQTTAPGRTNVGGDARSPGLGGLGGLGSLGGLGGLGMLGADSPLGATPDASQLSQLLQNPAISQMMQSVFSNPQYMNQLMSLNPQLRSMLDSNPQLREMMQNPDFLRQFSSPEMMQQMMTLQQSLSQNRNTASQDAGQTGAATGNNGGLDLLMNMFGSLGAGGLSGTNQSNVPPEERYATQLQQLQEMGFYDRAENIRALLATNGNVNAAVERLLGSIGQ"}, "B7": {"name": "26S proteasome non-ATPase regulatory subunit 4 homolog (Arabidopsis thaliana (Mouse-ear cress)), P55034 (parent)", "chain": "B4 chain", "partner": "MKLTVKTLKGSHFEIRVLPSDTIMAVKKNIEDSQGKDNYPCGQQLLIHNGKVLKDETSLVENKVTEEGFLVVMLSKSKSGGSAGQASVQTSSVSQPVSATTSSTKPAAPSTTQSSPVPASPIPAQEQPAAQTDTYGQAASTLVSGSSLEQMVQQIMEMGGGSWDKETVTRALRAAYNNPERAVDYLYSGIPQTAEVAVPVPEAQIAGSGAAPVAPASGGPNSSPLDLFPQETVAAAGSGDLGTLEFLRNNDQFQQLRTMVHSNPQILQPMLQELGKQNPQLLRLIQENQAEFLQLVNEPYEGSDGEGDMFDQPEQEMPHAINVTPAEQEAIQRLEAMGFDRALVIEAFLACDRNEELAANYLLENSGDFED"}}, "data": [{"variants_of": "B1", "settings": "with ubql1_human UBQLN1, Q9UMX0", "values": [{"variant": "I287N;A288N;Y289N;A290N;M291N", "effect of a mutation on the interaction": "disrupting interaction strength"}, {"variant": "L216N;A217N;L218N;A219N;L220N;I287N;A288N;Y289N;A290N;M291N", "effect of a mutation on the interaction": "disrupting interaction strength"}]}, {"variants_of": "B1", "settings": "with ubql2_human UBQLN2, Q9UHD9", "values": [{"variant": "I287N;A288N;Y289N;A290N;M291N", "effect of a mutation on the interaction": "disrupting interaction strength"}, {"variant": "L216N;A217N;L218N;A219N;L220N;I287N;A288N;Y289N;A290N;M291N", "effect of a mutation on the interaction": "disrupting interaction strength"}]}, {"variants_of": "B1", "settings": "with dsk2_yeast DSK2, P48510", "values": [{"variant": "I287N;A288N;Y289N;A290N;M291N", "effect of a mutation on the interaction": "with no effect"}, {"variant": "L216N;A217N;L218N;A219N;L220N;I287N;A288N;Y289N;A290N;M291N", "effect of a mutation on the interaction": "disrupting interaction strength"}]}, {"variants_of": "B1", "settings": "with rd23b_human RAD23B", "values": [{"variant": "I287N;A288N;Y289N;A290N;M291N", "effect of a mutation on the interaction": "disrupting interaction strength"}, {"variant": "L216N;A217N;L218N;A219N;L220N;I287N;A288N;Y289N;A290N;M291N", "effect of a mutation on the interaction": "disrupting interaction strength"}]}, {"variants_of": "B2", "settings": "with ubc_human UBC", "values": [{"variant": "L401A;G402A", "effect of a mutation on the interaction": "disrupting interaction strength"}]}, {"variants_of": "B2", "settings": "with ubc_human UBC", "remark": "another data set of the same source", "values": [{"variant": "L401A;G402A", "effect of a mutation on the interaction": "decreasing interaction strength"}]}, {"variants_of": "B3", "settings": "with ubc_human UBC", "values": [{"variant": "M200A;G201A;Y202A", "effect of a mutation on the interaction": "decreasing interaction strength"}]}, {"variants_of": "B3", "settings": "with ubc_human UBC", "remark": "another data set of the same source", "values": [{"variant": "M200A;G201A;Y202A;L376A;G377A;F378A", "effect of a mutation on the interaction": "disrupting interaction strength"}, {"variant": "L376A;G377A;F378A", "effect of a mutation on the interaction": "decreasing interaction strength"}]}, {"variants_of": "B3", "settings": "with psmd4_human PSMD4, P55036", "values": [{"variant": "L8A", "effect of a mutation on the interaction": "disrupting interaction"}]}, {"variants_of": "B4", "settings": "with dsk2_yeast DSK2, P48510", "values": [{"variant": "L286N;L287N;Q289N;A290D", "effect of a mutation on the interaction": "with no effect"}, {"variant": "L310N;A311N;L312N;A313D;L314N", "effect of a mutation on the interaction": "with no effect"}, {"variant": "L226D;A227D;L228D;A229D;L230D", "effect of a mutation on the interaction": "disrupting interaction strength"}, {"variant": "L286N;L287N;Q289N;A290D;L310N;A311N;L312N;A313D;L314N", "effect of a mutation on the interaction": "with no effect"}]}, {"variants_of": "B4", "settings": "with ubql2_human UBQLN2, Q9UHD9", "values": [{"variant": "L286N;L287N;Q289N;A290D", "effect of a mutation on the interaction": "with no effect"}, {"variant": "L310N;A311N;L312N;A313D;L314N", "effect of a mutation on the interaction": "with no effect"}, {"variant": "L226D;A227D;L228D;A229D;L230D", "effect of a mutation on the interaction": "disrupting interaction strength"}, {"variant": "L286N;L287N;Q289N;A290D;L310N;A311N;L312N;A313D;L314N", "effect of a mutation on the interaction": "with no effect"}]}, {"variants_of": "B4", "settings": "with rd23b_human RAD23B", "values": [{"variant": "L286N;L287N;Q289N;A290D", "effect of a mutation on the interaction": "with no effect"}, {"variant": "L310N;A311N;L312N;A313D;L314N", "effect of a mutation on the interaction": "disrupting interaction strength"}, {"variant": "L226D;A227D;L228D;A229D;L230D;L286N;L287N;Q289N;A290D", "effect of a mutation on the interaction": "decreasing interaction strength"}, {"variant": "L226D;A227D;L228D;A229D;L230D;L310N;A311N;L312N;A313D;L314N", "effect of a mutation on the interaction": "disrupting interaction strength"}, {"variant": "L226D;A227D;L228D;A229D;L230D", "effect of a mutation on the interaction": "with no effect"}, {"variant": "L286N;L287N;Q289N;A290D;L310N;A311N;L312N;A313D;L314N", "effect of a mutation on the interaction": "disrupting interaction strength"}]}, {"variants_of": "B5", "settings": "with ubc_human UBC", "values": [{"variant": "M158A;G159A;Y160A", "effect of a mutation on the interaction": "disrupting interaction strength"}, {"variant": "M158A;G159A;Y160A;L367A;G368A;F369A", "effect of a mutation on the interaction": "disrupting interaction strength"}, {"variant": "L367A;G368A;F369A", "effect of a mutation on the interaction": "with no effect"}]}, {"variants_of": "B5", "settings": "with ubc_human UBC", "remark": "another data set of the same source", "values": [{"variant": "M158A;G159A;Y160A", "effect of a mutation on the interaction": "decreasing interaction strength"}]}, {"variants_of": "B6", "settings": "with rpn13_arath RPN13, O48726", "values": [{"variant": "I61A", "effect of a mutation on the interaction": "disrupting interaction"}]}, {"variants_of": "B7", "settings": "with rd23b_arath RAD23B", "values": [{"variant": "L286N;L287N;Q289N;A290D;L310N;A311N;L312N;A313D;L314N", "effect of a mutation on the interaction": "disrupting interaction strength"}, {"variant": "L226D;A227D;L228D;A229D;L230D;L286N;L287N;Q289N;A290D", "effect of a mutation on the interaction": "decreasing interaction strength"}, {"variant": "L226D;A227D;L228D;A229D;L230D;L310N;A311N;L312N;A313D;L314N", "effect of a mutation on the interaction": "disrupting interaction strength"}, {"variant": "L286N;L287N;Q289N;A290D", "effect of a mutation on the interaction": "with no effect"}, {"variant": "L226D;A227D;L228D;A229D;L230D", "effect of a mutation on the interaction": "with no effect"}, {"variant": "L310N;A311N;L312N;A313D;L314N", "effect of a mutation on the interaction": "disrupting interaction strength"}]}]}
